Among the data in US5616484 are activity (units/g wet cells) values, retold here.

The series concerns the target T1, ApaLI restriction endonuclease (apaLIR product, 375 aa) (Acetobacter pasteurianus) (UniProt O52703).
T1 sequence: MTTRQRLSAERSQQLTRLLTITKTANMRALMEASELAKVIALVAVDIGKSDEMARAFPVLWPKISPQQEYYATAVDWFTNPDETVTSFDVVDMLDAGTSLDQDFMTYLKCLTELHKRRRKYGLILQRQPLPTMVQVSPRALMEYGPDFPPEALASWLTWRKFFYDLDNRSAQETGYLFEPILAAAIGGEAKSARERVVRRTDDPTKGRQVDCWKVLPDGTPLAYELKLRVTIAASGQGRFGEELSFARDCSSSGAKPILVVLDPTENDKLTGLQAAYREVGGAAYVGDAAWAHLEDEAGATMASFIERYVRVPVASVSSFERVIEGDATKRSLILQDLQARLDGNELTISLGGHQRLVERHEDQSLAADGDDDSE
As to the kind of experiment: cleavage_in_vitro. The settings on record: diluted cell extract, 1 ug lambda DNA, 1 h, 37 C.

lambda DNA displayed an activity (units/g wet cells) of 1e+06.
